These results are taken from patent US20260070976A1 (Alector, published 2026).

Where a chain is given by its changes, count along the chain named.

By Kd is commonly meant the equilibrium constant for the complex coming apart. The EC50 (read off the curve) is the concentration at which the effect is half-maximal. A higher EC50 (read off the curve) goes with a need for much substance.

B1: X0 (PA-29) (antibody, V domains shown)
VH: QVQLVQSGAEVKKPGSSVKVSCKASGYNFLNYDVNWVRQAPGQGLEWMGGIIPIFGTANYAQKFQGRVTITADESTSTAYMELSSLRSEDTAVYYCATGVGAGWFDPWGQGTLVTVSS
VL: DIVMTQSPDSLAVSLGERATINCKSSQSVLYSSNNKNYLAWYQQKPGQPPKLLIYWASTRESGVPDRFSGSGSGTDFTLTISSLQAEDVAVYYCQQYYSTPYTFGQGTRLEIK
notes: conditioned media in the HEK293F assays; also called parental X0 (PA-29) antibody; XO (PA-29)
B2: X12 (antibody, human IgG4, V domains shown)
VH: B1 VH with N31H, G99A, P107T
VL: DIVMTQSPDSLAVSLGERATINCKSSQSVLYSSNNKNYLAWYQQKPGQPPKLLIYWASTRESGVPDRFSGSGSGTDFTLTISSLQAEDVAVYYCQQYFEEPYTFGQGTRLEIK
notes: conditioned media in the HEK293F assays
B3: X14 (antibody, human IgG4, V domains shown)
VH: B1 VH with N31H, G99A, P107T
VL: DIVMTQSPDSLAVSLGERATINCKSSQSVYFSPNNKNYLAWYQQKPGQPPKLLIYWASTRESGVPDRFSGSGSGTDFTLTISSLQAEDVAVYYCQQYFEEPYTFGQGTRLEIK
notes: as for B2
B4: X7 (antibody, human IgG4, V domains shown)
VH: B1 VH
VL: B3 VL with Y30F, S32D, P33E
notes: as for B2
B5: X22 (antibody, human IgG4, V domains shown)
VH: B1 VH with N31H
VL: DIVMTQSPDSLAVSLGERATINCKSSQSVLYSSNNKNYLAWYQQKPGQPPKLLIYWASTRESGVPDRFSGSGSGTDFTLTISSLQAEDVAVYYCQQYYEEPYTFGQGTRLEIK
B6: X21 (antibody, human IgG4, V domains shown)
VH: B1 VH with N31H
VL: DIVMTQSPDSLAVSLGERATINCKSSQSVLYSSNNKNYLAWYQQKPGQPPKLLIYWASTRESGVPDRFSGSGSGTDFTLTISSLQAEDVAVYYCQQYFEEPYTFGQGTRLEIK
B7: X16 (antibody, human IgG4, V domains shown)
VH: B1 VH with N31H, G99A, P107T
VL: B3 VL with S32D, P33V
notes: as for B2
B8: X20 (antibody, human IgG4, V domains shown)
VH: B1 VH with N31H, G99A
VL: B3 VL with P33E, F98Y
notes: as for B2

T1 sequence (Q9UKJ1 20-303 R78G): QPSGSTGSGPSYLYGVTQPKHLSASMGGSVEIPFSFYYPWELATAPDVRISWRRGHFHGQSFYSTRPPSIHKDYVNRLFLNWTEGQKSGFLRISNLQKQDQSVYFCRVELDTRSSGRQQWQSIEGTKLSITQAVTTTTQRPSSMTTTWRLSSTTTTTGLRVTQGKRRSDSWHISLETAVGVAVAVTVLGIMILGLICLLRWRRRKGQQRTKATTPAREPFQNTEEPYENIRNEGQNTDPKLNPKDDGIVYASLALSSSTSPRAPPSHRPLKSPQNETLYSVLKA
T5 sequence (Q9UKJ1 20-197 limits assumed): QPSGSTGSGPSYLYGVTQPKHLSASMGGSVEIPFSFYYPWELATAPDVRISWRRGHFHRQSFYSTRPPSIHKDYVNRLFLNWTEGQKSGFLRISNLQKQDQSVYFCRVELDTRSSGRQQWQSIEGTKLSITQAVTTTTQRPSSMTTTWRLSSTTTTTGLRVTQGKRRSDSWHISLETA

The first assay addresses T1, human PILRA G78 on HEK293F cells (human, UniProt Q9UKJ1 20-303).
T1 construct: also called hA; G78 OE
The assay can be described thus: hA Kd of Table 9; method not stated (Example 8: HEK293F overexpressing cells, FACS).
Molecule B1 displayed a dissociation constant (Kd) of 78.7 nM.

As to B2, binding was characterised by a dissociation constant (Kd) of 0.1 nM.

In turn, B3 came in with a dissociation constant Kd of 0.1 nM.

The molecule B4 had a Kd of 1.2 nM.

In another assay the target is T2, cell surface PILRA on human monocytes (human, UniProt Q9UKJ1 20-303).
T2 construct: Native PILRA on CD14+ monocytes of healthy donors; also called human PILRA; hu mono
T2 sequence (Q9UKJ1 20-303): as the sequence (Q9UKJ1 20-303 R78G) above, with G59R counted along it
The assay can be described thus: flow cytometry; Alexa Fluor 647-conjugated antibody on human CD14+ monocytes, Fc receptors blocked, 30 min on ice. On the procedure:
Anti-human PILRA antibodies X0 (PA-29) and its affinity matured variants were tested for their abilities to bind cell surface PILRA on human and cynomolgus monocytes. CD14+ monocytes were isolated from healthy human donors using a RosetteSep Human Monocyte Enrichment Cocktail kit (StemCell). Cynomolgus white blood cells were collected from cynomolgus whole blood. In both human and cynomolgus samples, the Fc receptor on the tested monocytes was blocked and the monocytes were treated with Alexa Fluor 647-conjugated PILRA antibodies for 30 minutes on ice. A dose response curve of antibodies X0 (PA-29), X1, X2, X7, X11, X12, X13, X14, X16, X18, and X20 was tested for binding to cell surface PILRA in human and cynomolgus monocytes, and antibodies bound to PILRA in a dose response manner. In another sample of human donor monocytes, a dose response curve of antibodies X0 (PA-29), X1, X2, X11, X13, X18, X29 (PA-43), and X34 (A6) was tested for binding to cell surface PILRA in human and cynomolgus monocytes, and antibodies bound to PILRA in a dose response manner.
In general terms: In flow cytometry, cells or beads pass a laser one at a time.
As to B2, the “EC50 (read off the curve)” value was about 0.1 µg/mL.

For the molecule B3, the “EC50 (read off the curve)” value was about 0.1 µg/mL.

Regarding B4, the half-maximal effective concentration (EC50 (read off the curve)) is about 0.2 µg/mL.

Another assay deals with T3, human PILRB on HEK293F cells (human, UniProt Q9UKJ0 20-227).
T3 construct: also called hB
T3 sequence (Q9UKJ0 20-227): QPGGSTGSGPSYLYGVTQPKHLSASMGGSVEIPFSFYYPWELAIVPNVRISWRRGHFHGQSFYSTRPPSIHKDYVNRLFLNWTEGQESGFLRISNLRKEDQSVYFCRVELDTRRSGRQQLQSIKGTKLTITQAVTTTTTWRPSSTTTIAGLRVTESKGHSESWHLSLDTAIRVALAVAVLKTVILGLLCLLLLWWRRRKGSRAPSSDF
The assay can be described thus: hB Kd of Table 9; method not stated (Example 8: HEK293F overexpressing cells, FACS).
B2: the Kd came to 36.7 nM.

B3 registered a dissociation constant Kd of 6.6 nM.

The target in a further assay is T1, human PILRA G78 on HEK293F cells. The assay can be described thus: flow cytometry blocking assay; antibody on HEK293F cells overexpressing human PILRA G78, then 5 ug/mL NPDC1 Fc as the blocked ligand; cell-bound NPDC1 Fc read as MFI. The protocol:
A dose response curve of antibodies X0 (PA-29), X1, X2, X7, X11, X12, X13, X14, X16, X18, and X20 was assessed for modulating the binding of Neural Proliferation Differentiation and Control Protein 1 (NPDC1) Fc to 293 cells ectopically expressing human PILRA (HEK293F human PILRA G78 overexpressing cells). Conditioned media samples containing antibodies were incubated with human PILRA overexpressing cells for 30 minutes at 4° C., and then 5 μg/mL NPDC1 Fc was added to this mixture. After 30 minutes of incubation at 4° C., the cells were washed and cell-bound NPDC1 Fc was detected with anti-human IgG Alexa Fluor 647. The cells were analyzed by flow cytometry on FACS Canto II with the percentage of NPDC1 Fc binding in the presence of conditioned media relative to NPDC1 Fc binding alone was calculated. […] All tested antibodies decreased binding of NPDC1 to human PILRA.
As for B2, the “IC50 (read off the curve)” value is about 0.08 µg/mL.

For the molecule B3, the “IC50 (read off the curve)” value is about 0.02 µg/mL.

With B4, the “IC50 (read off the curve)” value is about 0.08 µg/mL.

The target in a further assay is T4, recombinant human PILRB (human, UniProt Q9UKJ0 20-191). The assay can be described thus: SPR, Carterra LSA, steady-state fit. On the procedure: (§1) Binding kinetics of human anti-PILRA-IgG4 antibodies were evaluated by surface plasmon resonance (SPR) using a Carterra LSA instrument (Carterra, Salt Lake City, UT). Antibodies were immobilized in duplicate arrays onto an HC30M sensor chip (Carterra) by amine coupling according to the manufacturer's protocol. After priming the immobilized antibodies with HBS-EP+ (Teknova, Hollister, CA, #8022) running buffer with 0.5 mg/mL BSA (MP Biomedicals LLC, #820451), the immobilized antibodies were tested for their ability to bind to recombinant human PILRA (SEQ ID NO:1) and cynomolgus PILRA (SEQ ID NO:120) and to human PILRB (SEQ ID NO:105) and cynomolgus PILRB (SEQ ID NO:121).
T4 sequence (Q9UKJ0 20-191 limits assumed): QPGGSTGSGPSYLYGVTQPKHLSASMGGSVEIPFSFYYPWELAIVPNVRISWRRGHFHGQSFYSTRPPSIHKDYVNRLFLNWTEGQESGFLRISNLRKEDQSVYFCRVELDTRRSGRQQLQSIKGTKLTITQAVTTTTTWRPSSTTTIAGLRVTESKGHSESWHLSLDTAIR
(§2) For binding kinetics analysis, human and cynomolgus PILRA and PILRB analytes were diluted in running buffer to 440 to 470 nM, and diluted 3-fold serially five times, to 1.8 to 1.9 nM, and injected for five minutes over the entire chip using the single channel flow cell to measure association of binding to the immobilized antibodies. Dissociation of the analytes was measured for five minutes, followed by regeneration of the chip with two 30-second injections of 10 mM glycine pH 2.0.
For the human PILRB interactions, the binding was too weak and heterogenous for kinetic constants to be calculated in this assay. Therefore, steady-state affinities were estimated based on the binding level of each analyte concentration at the end of the injections.
For orientation: Surface plasmon resonance follows binding to a sensor surface in real time, without labels.
Take B1: the binding result was “no binding”.

Regarding B5, the Kd came to 54 nM.

With B2, the Kd was 12 nM.

Turning to B6, the Kd was determined as 43 nM.

As for B7, the Kd was determined as 2 nM.

On to B8, for which the Kd amounted to 2 nM.

For B3, the equilibrium dissociation constant (Kd) stood at 4 nM.

B4: the Kd was 77 nM.

In another assay the target is T4, recombinant human PILRB. Nature of the assay: SPR, Biacore T200, antibody captured by anti-Fab. The protocol: (§3) A subset of these antibodies was further evaluated using the Biacore T200 (Cytiva). Anti-PILRA antibodies were diluted to 10 μg/mL and captured using an anti-Fab (Cytiva, #28958325) surface on a CM4 chip, that was prepared by amine coupling according to the manufacturer's protocol. Human PILRA and cynomolgus PILRB were diluted in running buffer to 130 nM, and diluted 4-fold serially, twice, to 8 nM. Human PILRB was similarly diluted from 260 nM to 16 nM. These analytes were injected and allowed 2 minutes of association, followed by dissociation for 5 minutes.
(§4) Data were analyzed using Biacore evaluation software to generate kinetic constants. The equilibrium dissociation constants (KD) were calculated from the fitted association and dissociation rate constants (k-on and k-off) for each of the anti-PILRA antibodies. These Kn values are indicated with asterisks in Table 8 below.
Take B5: the Kd worked out at 14 nM.

On to B2, for which the Kd was 28 nM.

The target in a further assay is T5, recombinant human PILRA (human, UniProt Q9UKJ1 20-197). The assay can be described thus: SPR, Biacore T200, antibody captured by anti-Fab. On the procedure:
as §3, §4
On to B1, for which the Kd was 294 nM.

As to B5, the Kd was 6.2 nM.

On to B2, for which the dissociation constant (Kd) turned out to be 0.3 nM.

As for B6, the Kd was 1.9 nM.

For a further assay, the target named is T2, cell surface PILRA on human monocytes. The assay can be described thus: cell-based or functional assay.
On to B1, for which the “Hu Mono DR EC50” value was determined as 0.7 µg/mL.

For the molecule B2, the “Hu Mono DR EC50” value is about 0.02 µg/mL.

B7: the “Hu Mono DR EC50” value is 0.005 µg/mL.

With B8, the “Hu Mono DR EC50” value was about 0.02 µg/mL.

As to B3, the “Hu Mono DR EC50” value was about 0.02 µg/mL.

B4: the “Hu Mono DR EC50” value was found to be 0.9 µg/mL.

The target of the next assay is T1, human PILRA G78 on HEK293F cells. Nature of the assay: FACS on HEK293F cells, binding on human PILRA (hA) over human PILRB (hB). On the procedure:
(§5) Conditioned media samples containing the tested anti-PILRA antibodies were assessed for binding to HEK293F cells overexpressing human PILRA (hA), human PILRB (hB), and cynomolgus PILRA (cA) by FACS. The conditioned media containing the tested antibodies were incubated with the cells for 30 min at 4° C., washed twice, and then detected with goat anti-human IgG secondary antibody (Alexa Fluor 647) at 1:1000 dilution. The cells were analyzed by flow cytometry on FACS Canto II, and for all cell lines, the reported MFI values were calculated for each conditioned media. These antibodies were evaluated for nonspecific binding using a baculovirus particle (BVP) assay (Jain T., Sun T., Durand S., Hall A., Houston N. R., Nett J. H., Sharkey B., Bobrowicz B., Caffry L, Yu Y., et al. Biophysical properties of the clinical-stage antibody landscape. Proc. Natl. Acad. Sci. USA. 2017; 114:944-949. Doi: 10.1073/pnas.1616408114.). The BVP scores are listed in Table 9, and the higher the score the more nonspecific binding that occurred.
Regarding B1, the “hA/hB binding ratio on HEK293F” value was determined as 108.

For the molecule B2, the “hA/hB binding ratio on HEK293F” value is 14.4.

For the molecule B7, the “hA/hB binding ratio on HEK293F” value was 6.1.

As for B8, the “hA/hB binding ratio on HEK293F” value amounted to 6.7.

B3: the “hA/hB binding ratio on HEK293F” value was 7.9.

As for B4, the “hA/hB binding ratio on HEK293F” value stood at 63.

The next assay addresses T5, recombinant human PILRA. The assay can be described thus: SPR, Carterra LSA, antibody amine-coupled, kinetic fit. The protocol: as §1, §2
B1: the Kd worked out at 233 nM.

As for B5, the Kd stood at 2.2 nM.

For the molecule B2, the Kd turned out to be 1 nM.

On to B6, for which the Kd is 1.8 nM.

Consider B7, for which the Kd was determined as 0.5 nM.

Take B8: the Kd came to 0.5 nM.

For B3, the Kd was determined as 1.1 nM.

Turning to B4, the Kd came to 3.8 nM.

For another assay, the target named is T6, recombinant cynomolgus PILRA (SEQ ID NO:120) (cynomolgus monkey).
T6 construct: also called cyno PILRA
T6 sequence (chain, as listed by the source limits assumed): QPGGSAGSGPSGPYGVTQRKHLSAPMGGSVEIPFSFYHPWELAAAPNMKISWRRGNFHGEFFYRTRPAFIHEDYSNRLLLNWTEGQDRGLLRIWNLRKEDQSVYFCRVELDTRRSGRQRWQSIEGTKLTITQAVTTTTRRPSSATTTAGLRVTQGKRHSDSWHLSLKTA
The description is as above. On the procedure:
as §1, §2
Turning to B1, the Kd came to 17 nM.

For the molecule B5, the Kd came to 0.2 nM.

In the case of B2, the Kd came to 0.2 nM.

In the case of B6, the Kd was 0.1 nM.

Consider B7, for which the Kd was found to be 0.1 nM.

Regarding B8, the Kd was determined as 0.1 nM.

As for B3, the Kd turned out to be 0.1 nM.

Regarding B4, the dissociation constant Kd was 0.4 nM.

A further assay has as its target T1, human PILRA G78 on HEK293F cells. Nature of the assay: flow cytometry; HEK293F cells overexpressing human PILRA, goat anti-human IgG Alexa Fluor 647. On the procedure:
as §5
In the case of B1, the “EC50 (read off the curve)” value is about 0.3 µg/mL.

The target in a further assay is cynomolgus PILRA on HEK293F cells (cynomolgus monkey, UniProt A0A7N9CRU1 20-292). Nature of the assay: cA Kd of Table 9; method not stated (Example 8: HEK293F overexpressing cells, FACS).
cynomolgus PILRA on HEK293F cells, sequence (A0A7N9CRU1 entry or part of it): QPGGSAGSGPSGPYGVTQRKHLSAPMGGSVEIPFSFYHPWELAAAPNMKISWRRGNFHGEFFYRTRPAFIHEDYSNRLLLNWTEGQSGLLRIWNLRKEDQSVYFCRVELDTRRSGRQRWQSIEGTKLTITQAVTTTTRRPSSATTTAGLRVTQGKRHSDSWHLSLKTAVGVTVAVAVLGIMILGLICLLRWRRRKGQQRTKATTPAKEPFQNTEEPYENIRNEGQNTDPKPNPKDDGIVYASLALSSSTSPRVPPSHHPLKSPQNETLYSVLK
The molecule B1 came in with a Kd of 192 nM.

As for B2, binding was put at a Kd of 0.3 nM.

Turning to B3, the Kd stood at 0.3 nM.

B4 had a Kd of 2 nM.
